T1: CinB (CinB^wPip, wPa_0295), co-expressed with His6-CinA from the full operon in E. coli (Wolbachia pipientis, wPip strain)
T1 construct: also called putative DUF1703 nuclease
T1 chain: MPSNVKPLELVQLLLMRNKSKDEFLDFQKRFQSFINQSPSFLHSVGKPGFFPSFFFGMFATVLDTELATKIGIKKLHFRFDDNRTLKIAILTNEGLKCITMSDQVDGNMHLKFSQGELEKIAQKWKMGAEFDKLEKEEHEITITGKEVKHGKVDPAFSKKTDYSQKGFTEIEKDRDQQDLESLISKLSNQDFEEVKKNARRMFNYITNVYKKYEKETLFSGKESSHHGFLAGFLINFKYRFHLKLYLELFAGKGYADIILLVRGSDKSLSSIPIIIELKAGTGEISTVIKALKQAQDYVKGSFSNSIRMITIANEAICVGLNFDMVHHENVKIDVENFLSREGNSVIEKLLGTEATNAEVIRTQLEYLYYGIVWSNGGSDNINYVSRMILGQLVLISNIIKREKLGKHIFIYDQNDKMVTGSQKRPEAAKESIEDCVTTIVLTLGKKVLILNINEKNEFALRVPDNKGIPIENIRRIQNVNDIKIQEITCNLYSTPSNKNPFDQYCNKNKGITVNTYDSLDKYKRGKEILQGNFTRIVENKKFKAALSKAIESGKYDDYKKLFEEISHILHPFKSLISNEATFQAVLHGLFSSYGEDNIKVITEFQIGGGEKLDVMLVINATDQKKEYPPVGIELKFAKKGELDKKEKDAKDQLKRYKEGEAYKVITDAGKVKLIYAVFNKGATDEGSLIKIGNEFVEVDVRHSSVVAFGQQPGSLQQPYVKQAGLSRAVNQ

T2: CidB (CidB^wPip, wPa_0283), co-expressed with His6-CidA from the full operon in E. coli (Wolbachia pipientis, wPip strain)
T2 construct: also called toxin
T2 chain: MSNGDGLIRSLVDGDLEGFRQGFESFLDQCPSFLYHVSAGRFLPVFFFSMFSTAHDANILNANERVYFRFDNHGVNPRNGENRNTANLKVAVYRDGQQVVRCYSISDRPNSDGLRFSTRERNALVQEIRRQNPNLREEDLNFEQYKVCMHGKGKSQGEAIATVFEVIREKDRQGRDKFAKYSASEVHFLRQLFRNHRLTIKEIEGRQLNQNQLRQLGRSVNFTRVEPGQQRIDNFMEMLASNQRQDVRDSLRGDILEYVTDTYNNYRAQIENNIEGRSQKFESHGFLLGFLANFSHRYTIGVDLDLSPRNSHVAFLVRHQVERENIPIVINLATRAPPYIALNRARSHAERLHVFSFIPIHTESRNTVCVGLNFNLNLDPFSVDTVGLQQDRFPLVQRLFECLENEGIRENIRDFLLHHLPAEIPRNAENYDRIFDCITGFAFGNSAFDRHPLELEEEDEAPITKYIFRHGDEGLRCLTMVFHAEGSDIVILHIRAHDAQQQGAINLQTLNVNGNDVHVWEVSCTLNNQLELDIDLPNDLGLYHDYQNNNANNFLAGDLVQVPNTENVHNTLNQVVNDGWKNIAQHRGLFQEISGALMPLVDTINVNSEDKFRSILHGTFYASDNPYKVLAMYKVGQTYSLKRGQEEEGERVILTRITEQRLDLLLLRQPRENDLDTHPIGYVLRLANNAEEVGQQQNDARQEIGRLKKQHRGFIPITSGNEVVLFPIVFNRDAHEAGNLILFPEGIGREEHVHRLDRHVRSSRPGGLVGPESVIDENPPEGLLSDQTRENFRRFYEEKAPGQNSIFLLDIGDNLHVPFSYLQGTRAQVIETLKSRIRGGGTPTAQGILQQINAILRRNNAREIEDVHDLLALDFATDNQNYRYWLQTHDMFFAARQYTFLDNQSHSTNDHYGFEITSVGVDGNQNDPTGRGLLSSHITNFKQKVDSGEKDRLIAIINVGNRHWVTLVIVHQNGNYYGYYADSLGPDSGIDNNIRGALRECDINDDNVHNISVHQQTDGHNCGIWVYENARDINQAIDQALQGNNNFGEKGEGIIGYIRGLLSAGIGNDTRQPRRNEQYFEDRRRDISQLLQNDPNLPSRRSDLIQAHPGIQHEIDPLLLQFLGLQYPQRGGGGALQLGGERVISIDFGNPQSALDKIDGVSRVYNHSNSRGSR


Key:
[1] = target: T1, CinB (CinB^wPip, wPa_0295), …; experiment: summary of the pulldown experiments of Example 2
[2] = target: T2, CidB (CidB^wPip, wPa_0283), …; experiment: summary of the pulldown experiments of Example 2

| Binder | binding result [1] | binding result [2] |
| --- | --- | --- |
| His6-CinA (CinA^wPip, wPa_0294, His6-tagged) (other) MESGLDHNYNKILDILKGAIKGDDNQVKARKHLRVERWLRAYIQLIEDFDEEKLIFFSDIFSDNSCWDGIKLKNKAVGERLTEEKNKNGKENPLDLADRYYLACKYCLEDKIPGLFEQVFMRFKRSAFEEDGSDDDLRRELLENIEETSPIEAFWSFLIDKQIGKLNEYKSVEGLQKSIQINSNKNWEEGIEFFYNKLHNDSSISSQDKDDLLIEAALSAVKGYKEVDTIEFCLSKMDDEQKKKLLDRDYKENTYYAVLNVLVGQYYFDSFMELSRLCSQIECERYTTFLSSLSDQVLKNPDLSEETKKCMMNVWERIIKLKTQDRGEQSISSIFVDYSVTYTIANLIVDPSRQGVSKEEILGKILKHVKEMSGEEMIKVKDSVLSKIQLFHGGKKLQLGEQVFSKLAQEASKESILREAGDTLPQSSLSTTDTPYNIKSLSHSK | binds |  |
| His6-CidA (CidA^wPip, wPa_0282, N-terminally His6-tagged) (other, also called His6-tagged CidA; antidote) MPTQKELRDTMSKKLQEAIKHPDPAVVAGRKSAIKRWVGVLQDNFMEHIKYFKGDKLKFLHNVFQDEGCWSGVRLDNAALGQRFTEEKIGGIDNPLRKYEMACSYCVVDKIHPLFQKRFESYRNKFPPGAFDGKTETEFGKYVRNSLLDSIKRKGPVFDFWIDRESGELKKYDAVEGFDSAVKFKWSEGVEYFYNHLKEEDKEKKLTEAILALSRVQSVEKDAPILDFCVNKIVDKDTLLQKLSQKDKGVYSLFAELIESCFFDTVHDLVQCWCYKEVSAGGDHSEKIFSQRDYELFLSSLSDTMLKNPELSVQARSLIMEFWECGSLYQYRKAAVNTSNYTVPTSGVFAELIVNWRREDIYKTDEEKEIEKKEILDMMSFAKDCFPEKFELFKKLIIRDLRLCGREGKRVNVDYGLFAEELFSELEKTILPPGPVGDGPCSNLRSRSKAHGSKKTTLPVDDSPQSELGTPSVSGVSSYKKKSVFTLSGNK |  | binds |
